Read-outs that look alike come from different tables or passages of the source.
Tests used:
[1] = biological target: T1, recombinant human IL-23 (p19/p40) (human, UniProt Q9NPF7 20-189; P29460 23-328); test: alpha-screen hIL-23/hIL-23R; Fig 7
T1 chain 1: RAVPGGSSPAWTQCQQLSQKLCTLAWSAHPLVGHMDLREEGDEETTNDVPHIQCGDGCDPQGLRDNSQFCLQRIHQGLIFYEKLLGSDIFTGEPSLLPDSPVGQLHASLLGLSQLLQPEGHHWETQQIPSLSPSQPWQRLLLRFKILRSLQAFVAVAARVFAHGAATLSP
T1 chain 2: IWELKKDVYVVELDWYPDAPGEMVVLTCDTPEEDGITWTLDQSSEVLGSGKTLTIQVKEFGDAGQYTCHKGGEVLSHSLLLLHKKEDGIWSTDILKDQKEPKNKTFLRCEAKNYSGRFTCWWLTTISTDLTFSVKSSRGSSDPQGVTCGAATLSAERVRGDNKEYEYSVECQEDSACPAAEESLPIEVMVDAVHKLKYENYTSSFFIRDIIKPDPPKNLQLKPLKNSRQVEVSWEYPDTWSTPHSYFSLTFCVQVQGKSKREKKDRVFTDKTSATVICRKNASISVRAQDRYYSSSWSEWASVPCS

[2] = biological target: T1, recombinant human IL-23 (p19/p40); test: Biacore; eBiosc hIL23
recombinant human IL-12 [3] = biological target: T2, recombinant human IL-12 (human, UniProt P29459 23-219; P29460 23-328); test: Biacore
T2 chain 1: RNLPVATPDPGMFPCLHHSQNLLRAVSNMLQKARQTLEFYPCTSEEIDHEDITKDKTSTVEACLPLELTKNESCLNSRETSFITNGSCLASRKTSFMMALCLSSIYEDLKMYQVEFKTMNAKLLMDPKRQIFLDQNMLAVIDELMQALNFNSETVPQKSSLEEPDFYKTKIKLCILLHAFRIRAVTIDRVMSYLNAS
T2 chain 2: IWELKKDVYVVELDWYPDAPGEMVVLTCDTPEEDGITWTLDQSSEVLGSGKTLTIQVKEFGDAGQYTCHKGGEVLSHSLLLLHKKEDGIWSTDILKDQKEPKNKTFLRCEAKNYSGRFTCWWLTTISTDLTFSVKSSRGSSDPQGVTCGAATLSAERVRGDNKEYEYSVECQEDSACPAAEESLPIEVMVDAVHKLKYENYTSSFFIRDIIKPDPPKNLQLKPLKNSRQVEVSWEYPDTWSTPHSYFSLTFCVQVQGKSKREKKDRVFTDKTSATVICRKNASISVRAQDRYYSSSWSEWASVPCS

recombinant human IL-12 [4] = biological target: T2, recombinant human IL-12; test: Biacore
[5] = biological target: T1, recombinant human IL-23 (p19/p40); test: alpha-screen hIL-23/hIL-23R; Fig 6

B1: P23IL119A3 (VHH)
VHH: EVQLVESGGGLVQAGGSLRLSCAASGRIFSLPASGNIFNLLTIAWHRQAPGMQRELVATINSGSRTNYADSVKGRFTISRDNAQKTVYLQMNNLKPEDTAVYYCQTSGSGSPNFWGQGTQVTVSS
Question: With B1 as the binder, how does the IC50 [1] read?
Answer: Its IC50 is 0.67 nM.

B2: P23IL81G2 (VHH)
VHH: EVQLVESGGGLVQPGGSLRLSCIASGLPFSTKSMGWFRQAPGKEREFVARISPGGTSRYYGDFVKGRFAISRDNAKNTTWLQMNSLKAEDTAVYYCASGERSTYIGSNYYRTNEYDYWGTGTQVTVSS
Question: For B2, which koff [2] is on record?
Answer: Its koff is 0.000257 s⁻¹.

B3: P23IL81A12 (VHH)
VHH: EVQLVESGGGLVQAGGSLRLSCAASGRTLSSYAMGWFRQAPGKEREFVARISQGGTAIYYADSVKGRFTISRDNAKNTVYLQMNSLKPEDTAVYYCAKDPSPYYRGSAYLLSGSYDSWGQGTQVTVSS
Question: With B3 as the binder, how does the koff [2] read?
Answer: The koff was 0.000113 s⁻¹.

B4: P23IL81E10 (VHH)
VHH: EVQLVESGGGLVQAGGSLRLSCVASGRTFNTYGMGWFRQAPGKEREFVAANNWSGGATSYADSVKGRFTISRDNAKNTVFLQMNTLKPEDTAVYYCAAADRGGGWLVVRENDYDYWGQGTQVTVSS
Question: For B4, which koff (recombinant human IL-12 [3]) is on record?
Answer: Its koff is 0.00266 s⁻¹.

Question: What about the koff (recombinant human IL-12 [4]) of the same binder?
Answer: Its koff is 0.00266 s⁻¹.

B5: 121A2-119G7 (antibody)
chain: EVQLVESGGGLVQAGGSLRLSCAASGSIFNFNYMGWFRQAPGKEREFVAAIRWSGSSTYYADSVKGRFTISRDDAKNTVALQMNSLKPEDTAIYYCALRKGIPYSTSDRVIKGVNDYDYWGQGTQVTVSSGGGGSGGGGSGGGGSGGGGSGGGGSGGGGSGGGGSEVQLVESGGGLVQAGGSLTLSCAVSGLTFNNYAMGWFRQVPGKEREFVAAISRSGLRTFYSDSVKGRFTISRDSAKSTVYVQMNNLKPEDTAVYFCAADRRTYYSEGPSLTDTLRYDYWGQGTQVTVSS
Question: With B5 as the binder, how does the IC50 [5] read?
Answer: The IC50 was 0.131 nM.

B6: P23IL 3F11 (VHH)
VHH: EVQLVESGGGLVQAGGSLRLSCAASGSIFSINAMGWFRQAPGKERQFVAAINWSTGSTYYSDSVKGRFTISRDNAKNTVYLQMNSLKPEDTAVYFCASGYLFPSSRGSQYDYWGQGTQVTVSS
Question: With B6 as the binder, how does the koff (recombinant human IL-12 [4]) read?
Answer: Its koff is 0.00134 s⁻¹.

B7: P23IL3G10 (VHH)
VHH: EVQLVESGGGVVQAGESLRLSCAASGYNVKDYEMGWFRQAPGMEREFAAAISWRGSSTYYADSVKGRFTISRDNAKNTVYLQMSSLKPEDTAVYYCAAGRLYPSSRSRDYDYWGQGTQVTVSS
Question: For B7, which koff (recombinant human IL-12 [4]) is on record?
Answer: The koff was 0.00244 s⁻¹.

B8: P23IL3C1 (VHH)
VHH: EVQLVESGGGSVQAGGSLRLSCKVSGIMFSDKGMGWFRQAPGKERETVAATNWSGGSTYYADSVKGRFTISRDNYKNTLHLQMASLKPEDTGIYYCAAAGDSWNSRRIEDYDYWGQGTPVTVSS
Question: How did the koff (recombinant human IL-12 [4]) turn out when B8 was run?
Answer: The koff was 0.000279 s⁻¹.

B9: P23IL3B8 (VHH)
VHH: EVQLVESGGGLVQPGGSLRLSCAASGFTFSSSVMFWLRQAPGKGLEWLSTIKPTGSTIYPGSGKGRFTISRDNAKNTLYLQINNLKPEDTALYYCARDIGGTVRGQGTQVTVSS
Question: For B9, which koff (recombinant human IL-12 [4]) is on record?
Answer: The koff was 0.00243 s⁻¹.

B10: P23IL-121A2 (VHH)
VHH: EVQLVESGGGLVQAGGSLRLSCAASGSIFNFNYMGWFRQAPGKEREFVAAIRWSGSSTYYADSVKGRFTISRDDAKNTVALQMNSLKPEDTAIYYCALRKGIPYSTSDRVIKGVNDYDYWGQGTQVTVSS
Question: Which results are given for B10?
Answer: IC50 [5]: 0.299 nM; IC50 [1]: 0.27 nM

B11: 119A3-119G7 (antibody)
chain: EVQLVESGGGLVQAGGSLRLSCAASGRIFSLPASGNIFNLLTIAWHRQAPGMQRELVATINSGSRTNYADSVKGRFTISRDNAQKTVYLQMNNLKPEDTAVYYCQTSGSGSPNFWGQGTQVTVSSGGGGSGGGGSGGGGSGGGGSGGGGSGGGGSGGGGSEVQLVESGGGLVQAGGSLTLSCAVSGLTFNNYAMGWFRQVPGKEREFVAAISRSGLRTFYSDSVKGRFTISRDSAKSTVYVQMNNLKPEDTAVYFCAADRRTYYSEGPSLTDTLRYDYWGQGTQVTVSS
Question: For B11, which IC50 [1] is on record?
Answer: Its IC50 is 0.132 nM.

B12: P23IL119G7 (VHH)
VHH: EVQLVESGGGLVQAGGSLTLSCAVSGLTFNNYAMGWFRQVPGKEREFVAAISRSGLRTFYSDSVKGRFTISRDSAKSTVYVQMNNLKPEDTAVYFCAADRRTYYSEGPSLTDTLRYDYWGQGTQVTVSS
Question: How did the koff [2] turn out when B12 was run?
Answer: Its koff is 0.000479 s⁻¹.

— patent publication US20110053865A1 (published 2011)
